# B1: W1145R mutant: W1145R mutant of EGFP-NLS-TopBP1 (978-1286), analogous to the W1138R mutant of XtopBP1 (protein)
# chain: KKKRKVAQECKHLPESLYPHTYNPKMSLDISAVQDGRLCNSRLLSAVSSTKDDEPDPLILEENDVDNMATNNKESAPSNGSGKNDSKGVLTQTLEMRENFQKQLQEIMSATSIVKPQGQRTSLSRSGCNSASSTPDSTRSARSGRSRVLEALRQSRQTVPDVNTEPSQNEQIIRDDPTAREERARLASNLQWPSCPTQYSELQVDIQNLEDSPFQKPLHDSEIAKQAVCDPGNIRVTEAPKHPISEELETPIKDSHLIPTPQAPSIAFPLANPPVAPHPREKIITIEETHEELKKQYIFQLSSLNPQERIDYCHL
# modifications: left off: large carriers
# notes: W1145R mutant of EGFP-NLS-TopBP1 (978-1286), analogous to the W1138R mutant of XtopBP1
# B2: W1138R mutant of GST-XtopBP1 (972-1279): point mutant of the fragment in which the tryptophan in the WDDP motif was changed to arginine (protein)
# chain: EQQKRVPEALYPHTYNPKMSLDISAVQDGSYTASKFSADTSLQQDENSELQLQQNNKFGETSDDQVKKAAGDGNPQNPSKDVKGALTQTLEMRENFQRQLQEFMSATSVVKPRGSVGRAGFDNSPCTPEGARSTRNGRSRVLEALRQSRQAMTDLNTEPSQNEQIIRDDPTAREERAKLVSNLQWPDSPSQYSEQLQHNMNDAGGNYTPAKESLTDSEIAELEACEFEPKSAMRTPVIENNLQSPTKPDHLTPTPQAPSIAFPLANPPVAPQPREKPVQPFSKEETLKERRFQLSSLDPQERIDYSQL
# modifications: left off: a dimerising Fc or GST; small tags and cut ends
# notes: point mutant of the fragment in which the tryptophan in the WDDP motif was changed to arginine
# Experiments:
# Xatr-Xatrip [1] = target: Xatr-Xatrip (Xenopus laevis, UniProt Q9DE14); assay: Kinase assay of Xatr-Xatrip complexes isolated from Xenopus egg extracts; format: biochemical; parameters: increase of kinase activity of Xatr; other: Xatr immunoprecipitated from Xatrip-depleted extracts
# Chain of Xatr-Xatrip (Q9DE14 whole entry, the tested form may be a part): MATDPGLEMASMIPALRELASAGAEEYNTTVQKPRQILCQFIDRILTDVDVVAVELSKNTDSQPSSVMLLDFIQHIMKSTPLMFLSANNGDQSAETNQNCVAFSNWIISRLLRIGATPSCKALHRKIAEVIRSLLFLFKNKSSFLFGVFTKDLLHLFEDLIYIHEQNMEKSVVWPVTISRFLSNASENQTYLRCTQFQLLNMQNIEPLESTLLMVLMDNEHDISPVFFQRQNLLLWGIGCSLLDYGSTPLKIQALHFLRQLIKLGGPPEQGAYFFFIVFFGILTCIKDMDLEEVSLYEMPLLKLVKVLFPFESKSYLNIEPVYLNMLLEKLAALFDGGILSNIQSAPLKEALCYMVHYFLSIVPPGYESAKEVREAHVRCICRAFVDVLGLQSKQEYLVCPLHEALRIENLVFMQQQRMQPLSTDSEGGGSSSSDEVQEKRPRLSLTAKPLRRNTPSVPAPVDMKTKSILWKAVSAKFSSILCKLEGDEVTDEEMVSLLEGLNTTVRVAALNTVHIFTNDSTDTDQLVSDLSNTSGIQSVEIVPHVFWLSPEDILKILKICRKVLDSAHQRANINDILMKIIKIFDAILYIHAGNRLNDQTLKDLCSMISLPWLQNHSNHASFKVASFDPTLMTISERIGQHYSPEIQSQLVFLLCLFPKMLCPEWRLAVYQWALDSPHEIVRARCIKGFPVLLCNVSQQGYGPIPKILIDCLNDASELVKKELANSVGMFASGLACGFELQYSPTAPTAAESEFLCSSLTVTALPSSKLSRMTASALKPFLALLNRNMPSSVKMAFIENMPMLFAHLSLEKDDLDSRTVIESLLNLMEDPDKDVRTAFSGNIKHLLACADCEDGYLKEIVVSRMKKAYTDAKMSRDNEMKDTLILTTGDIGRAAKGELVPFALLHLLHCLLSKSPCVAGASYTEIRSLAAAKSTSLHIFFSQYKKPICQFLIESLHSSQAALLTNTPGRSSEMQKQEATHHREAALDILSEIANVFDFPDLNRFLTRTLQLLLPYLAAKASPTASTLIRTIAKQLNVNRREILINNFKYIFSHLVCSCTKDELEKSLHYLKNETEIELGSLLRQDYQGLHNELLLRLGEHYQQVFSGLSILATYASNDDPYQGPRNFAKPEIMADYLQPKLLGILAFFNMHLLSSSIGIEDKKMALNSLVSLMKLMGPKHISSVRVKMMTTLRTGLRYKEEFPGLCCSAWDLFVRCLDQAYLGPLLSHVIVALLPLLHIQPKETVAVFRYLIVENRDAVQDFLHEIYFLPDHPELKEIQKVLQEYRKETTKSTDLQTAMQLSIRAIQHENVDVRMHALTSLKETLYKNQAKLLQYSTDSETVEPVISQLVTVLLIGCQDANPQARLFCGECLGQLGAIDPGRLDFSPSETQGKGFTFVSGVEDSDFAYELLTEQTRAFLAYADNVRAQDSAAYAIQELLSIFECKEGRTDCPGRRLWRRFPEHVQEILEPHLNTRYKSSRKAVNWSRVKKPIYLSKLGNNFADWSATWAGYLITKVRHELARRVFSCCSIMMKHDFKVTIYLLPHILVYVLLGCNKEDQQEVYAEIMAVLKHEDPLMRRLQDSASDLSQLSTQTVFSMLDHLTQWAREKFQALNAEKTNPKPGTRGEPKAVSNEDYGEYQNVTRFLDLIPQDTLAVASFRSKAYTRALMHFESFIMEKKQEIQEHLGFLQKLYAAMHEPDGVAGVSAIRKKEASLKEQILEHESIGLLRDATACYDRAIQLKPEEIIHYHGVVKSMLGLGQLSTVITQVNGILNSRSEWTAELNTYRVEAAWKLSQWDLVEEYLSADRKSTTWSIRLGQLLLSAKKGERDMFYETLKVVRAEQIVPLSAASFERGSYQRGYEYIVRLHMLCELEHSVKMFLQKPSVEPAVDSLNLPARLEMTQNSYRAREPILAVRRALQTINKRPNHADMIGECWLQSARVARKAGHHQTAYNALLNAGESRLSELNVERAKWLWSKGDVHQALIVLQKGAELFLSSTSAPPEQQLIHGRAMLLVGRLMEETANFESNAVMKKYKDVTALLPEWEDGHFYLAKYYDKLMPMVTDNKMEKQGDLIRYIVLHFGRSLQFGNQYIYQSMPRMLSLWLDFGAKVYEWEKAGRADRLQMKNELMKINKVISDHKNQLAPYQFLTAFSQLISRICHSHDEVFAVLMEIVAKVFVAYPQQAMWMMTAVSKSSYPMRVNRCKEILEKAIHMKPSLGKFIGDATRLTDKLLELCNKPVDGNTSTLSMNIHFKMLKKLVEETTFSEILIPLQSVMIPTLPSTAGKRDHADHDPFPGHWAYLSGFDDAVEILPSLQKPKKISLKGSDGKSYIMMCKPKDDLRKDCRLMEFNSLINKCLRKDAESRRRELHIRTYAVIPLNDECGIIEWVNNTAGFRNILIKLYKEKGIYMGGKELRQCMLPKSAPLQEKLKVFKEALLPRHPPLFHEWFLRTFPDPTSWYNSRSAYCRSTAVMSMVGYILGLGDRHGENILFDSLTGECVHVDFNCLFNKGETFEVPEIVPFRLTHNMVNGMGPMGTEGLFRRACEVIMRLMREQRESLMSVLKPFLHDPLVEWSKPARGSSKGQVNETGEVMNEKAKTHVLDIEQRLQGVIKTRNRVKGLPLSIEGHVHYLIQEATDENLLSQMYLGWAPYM
# Chain of Xatr-Xatrip (Xenopus laevis, UniProt Q9DE14) (Q9DE14 whole entry, the tested form may be a part): as above
# Excerpt: (§1) Specifically, Applicants first isolated Xatr from egg extracts by pull-downs with FLAG-tagged Xenopus ATRIP (Xatrip). For these experiments, Applicants used both full-length Xatrip and an N-terminal truncation mutant (ΔN222) that supports normal Xatr-dependent activation of Xchk1 in egg extracts (Kumagai et al., 2004; Kim et al., 2005).
# (§2) Applicants eluted the beads with FLAG peptide and mixed the eluates with a His6-tagged version of XtopBP1 that had been purified from baculovirus-infected insect cells (FIG. 1B). Finally, Applicants added ^32P-ATP and PHAS-I, a commonly used model substrate for ATR (Abraham, 2001).
# Xatrip-FLAG and XatripΔN222-FLAG (20 ng/μl each) were incubated in interphase extracts containing anti-FLAG M2 antibody beads (Sigma) for 60 min at room temperature. The beads were isolated and washed twice with buffer A (10 mM HEPES-KOH (pH 7.5), 150 mM NaCl, 0.1% CHAPS, and 2.5 mM EGTA) and twice with HEPES-buffered saline (HBS; 10 mM HEPES-KOH (pH 7.5) and 150 mM NaCl). Xatr-Xatrip complexes were eluted in one-tenth the volume of the egg extract in HBS containing 0.1 mg/ml 3×-FLAG peptide (Sigma) for 60 min at 4° C. Eluates (2 μl) were used for kinase assays as described below. […]
# Xatr-Xatrip [2] = assay: as above; format: biochemical; conditions: for activation of Xatr kinase activity toward PHAS-I: isolated Xatr-Xatrip complexes, 32P-ATP, result in words
# Excerpt: as §1, §2
# Xatrip-FLAG and XatripΔN222-FLAG (20 ng/μl each) were incubated in interphase extracts containing anti-FLAG M2 antibody beads (Sigma) for 60 min at room temperature. The beads were isolated and washed twice with buffer A (10 mM HEPES-KOH (pH 7.5), 150 mM NaCl, 0.1% CHAPS, and 2.5 mM EGTA) and twice with HEPES-buffered saline (HBS; 10 mM HEPES-KOH (pH 7.5) and 150 mM NaCl). Xatr-Xatrip complexes were eluted in one-tenth the volume of the egg extract in HBS containing 0.1 mg/ml 3×-FLAG peptide (Sigma) for 60 min at 4° C. Eluates (2 μl) were used for kinase assays as described below.
# (§3) Samples were incubated in 20 μl kinase buffer (50 mM Tris-HCl (pH 7.5), 10 mM MgCl2, 1 mM dithiothreitol, 100 μM nonradioactive ATP, and 100 μCi/ml [γ-^32P]ATP) containing 12.5 μg/ml PHAS-I or 50 μg/ml GST-Xmcm2 (62-122) for 30 min at room temperature. GST-XtopBP1 (972-1279) was added at a final concentration of 100 μg/ml unless indicated otherwise. In some cases, GST-Xmcm2 (62-122), GST-Xchk1 (306-352), or full-length Xchk1-Myc-His6 were used as substrates with only […] nonradioactive ATP. Reactions were terminated by boiling in gel sample buffer.
# Xchk1 [3] = assay: Checkpoint-dependent phosphorylation of Xchk1 in XtopBP1-depleted egg extracts with aphidicolin and sperm nuclei; format: biochemical, Xenopus; conditions: added back to XtopBP1-depleted extract, aphidicolin
# Excerpt: Applicants proceeded to remove endogenous XtopBP1 from egg extracts by immunodepletion with anti-XtopBP1 antibodies (FIG. 7C). In parallel, Applicants used control antibodies to prepare mock-depleted extract. Next, Applicants added back wild-type His6-XtopBP1 or the His6-XtopBP1-W1138R mutant to aliquots of the XtopBP1-depleted extract. Finally, Applicants added aphidicolin and demembranated Xenopus sperm nuclei to the various extracts in order to create stalled replication forks and then examined phosphorylation of Xchk1 (FIG. 7D).
# (§4) Extracts from Xenopus eggs were prepared as described (Kumagai and Dunphy, 2000). A DNA replication checkpoint response was induced by addition of 50 μg/ml aphidicolin into extracts containing demembranated sperm nuclei (3000 per μl) (Kumagai and Dunphy, 2000). To monitor DNA replication, extracts containing 1000 sperm nuclei/μl were incubated with [α-^32P]dATP (Yoo et al., 2004).
# Xatr and Xatrip were immunodepleted as described (Kumagai et al., 2004). For immunodepletion of XtopBP1, we incubated 100 μl egg extract twice for 60 min with 10 μl Affiprep protein A beads (BioRad) containing 35 μg anti-XtopBP1 antibodies.
# human Mcm2 on S108 = assay: Phosphorylation of Mcm2 on S108 in transfected human 293T cells; format: cell-based; conditions: immunoblotting
# Excerpt: To pursue this issue further, Applicants asked whether the ATR-activating domain of TopBP1 could induce ATR-dependent phosphorylation in human cells. For this purpose, Applicants constructed a version of the enhanced green fluorescent protein (EGFP) containing the SV40 nuclear localization sequence and residues 978-1286 of human TopBP1 (equivalent to residues 972-1279 of XtopBP1). Applicants also produced the W1145R mutant of this plasmid (analogous to the W1138R mutant of XtopBP1). Applicants transfected plasmids encoding these proteins into human 293T cells and performed immunoblotting with anti-phosphopeptide antibodies that detect phosphorylation of human Mcm2 on S108 (which corresponds to S92 of Xmcm2) (Cortez et al., 2004; Yoo et al., 2004).
# pEGFP-NLS-TopBP1 (978-1286), which encodes EGFP followed by a nuclear localization sequence (KKKRKV, SEQ ID NO: 11) and amino acids 978-1286 of human TopBP1, was prepared from pEGFP (Clontech) by standard polymerase chain reaction-based methods. Plasmids were transfected into 293T cells with Lipofectamine 2000 (Invitrogen).
# Xatr-Xatrip [4] = assay: Glutathione bead pull-down of Xatr and Xatrip from egg extracts; format: binding, Xenopus; conditions: egg extracts, immunoblotting
# Experimental: Specifically, Applicants incubated glutathione beads containing GST-XtopBP1 (972-1279) in egg extracts, reisolated the beads, and performed immunoblotting for both Xatr and Xatrip. […] In addition, in other experiments, there was no binding of Xatr or Xatrip to beads containing GST fusions of the 1-348, 333-646, or 623-984 segments from XtopBP1 (data not shown).
# Applicants also tested to see if the association of XtopBP1 with Xatr depends upon Xatrip. For this experiment, Applicants removed endogenous Xatrip from egg extracts by immunodepletion with anti-Xatrip antibodies. As described previously, this procedure leaves behind approximately 30% of the endogenous Xatr, the fraction that is not in a complex with Xatrip (Kumagai et al., 2004). Next, Applicants added GST-XtopBP1 (972-1279) to the Xatrip-depleted extracts and to mock-depleted extracts that had been prepared in parallel.
# Xchk1 [5] = assay: Ectopic phosphorylation of 35S-Xchk1 in Xenopus egg extracts without checkpoint-inducing DNA; format: biochemical; conditions: 35S-Xchk1, tautomycin, no checkpoint-inducing DNA template
# Experimental: Because the GST-XtopBP1 (972-1279) fragment could activate Xatr in vitro without the inclusion of DNA, Applicants reasoned that ectopic addition of this fragment to Xenopus egg extracts might also be able to trigger the Xatr-dependent phosphorylation of Xchk1 even in the absence of a checkpoint-inducing DNA template.
# as §4
# human ATR [6] = assay: Kinase assay of recombinant human FLAG-ATR against S92 of GST-Xmcm2 (62-122); format: biochemical; conditions: kinase-deficient human FLAG-ATR
# Experimental: (§5) Specifically, Applicants isolated wild-type and kinase-deficient versions of FLAG-tagged human ATR from nuclear extracts of U2OS cells that conditionally express these proteins (FIG. 5C). The recombinant ATR proteins were purified with anti-FLAG magnetic beads under conditions that preserve the binding of endogenous ATRIP (Ünsal-Kacmaz and Sancar, 2004). Next, Applicants incubated both the wild-type and kinase-deficient FLAG-ATR preparations in the absence or presence of GST-XtopBP1 (972-1279), and measured kinase activity against S92 of the GST-Xmcm2 (62-122) peptide.
# as §3
# (§6) U2OS cells conditionally expressing wild-type (GW33) or kinase-deficient (GK41) human FLAG-ATR were cultured as described (Nghiem et al., 2001). Cells were induced with 1 μg/ml doxycycline for 48 hr. Nuclear extracts were prepared as described (Dignam et al., 1983) except that nuclei were lysed by brief sonication and the concentration of NaCl in the nuclear isolation buffer was reduced to 350 mM in order to preserve the binding of endogenous ATRIP to recombinant ATR. FLAG-ATR proteins were isolated by an overnight incubation with anti-FLAG antibodies bound to protein G-magnetic beads (Dynal) and eluted with 3×-FLAG peptide.
# human ATR [7] = target: T1, human ATR (Homo sapiens, UniProt Q13535); assay: as above; format: biochemical; conditions: wild-type human FLAG-ATR from U2OS nuclear extracts
# T1 construct: expressed in transfected cells; host or cells: U2OS GW33 cells (doxycycline-inducible), nuclear extract, anti-FLAG purification
# Experimental: as §5, §3, §6
molecule,measurement,setting,value
"Cn1c(=O)c2c(ncn2C)n(C)c1=O [caffeine, reference compound]",IC50,"Xatr-Xatrip [1]; Xatr-XatripΔN222 activated by His6-XtopBP1, PHAS-I substrate, 0.04-5 mM caffeine, read-out: half-maximal inhibition of the XtopBP1-activated form of Xatr",~400 µM
XtopBP1: His6-tagged full-length Xenopus TopBP1 purified from baculovirus-infected insect cells,half-maximal induction of kinase activity,"Xatr-Xatrip [2]; Xatr-XatripΔN222, PHAS-I substrate, dose-response 0.5-30 μg/ml XtopBP1",10 to 15 µg/mL
same,induced kinase activity toward PHAS-I,Xatr-Xatrip [2]; XatripΔN222-FLAG preparation from Xatr-depleted extracts,could not elicit any kinase activity
same,induced kinase activity toward PHAS-I,Xatr-Xatrip [2]; XatripΔN222-FLAG preparation from mock-depleted extracts,induced strong kinase activity
same,activation of Xatr kinase activity toward PHAS-I,Xatr-Xatrip [2],very large increase
same,kinase activity toward PHAS-I of the preparation alone,Xatr-Xatrip [2]; recombinant XtopBP1 without Xatr-Xatrip,negligible kinase activity
same,increase of kinase activity of Xatr,Xatr-Xatrip [1]; Xatr immunoprecipitated from Xatrip-depleted extracts,could not significantly increase
same,rescue of phosphorylation of Xchk1,Xchk1 [3],rescue the phosphorylation of Xchk1 fully
B1,phosphorylation of Mcm2 on S108,human Mcm2 on S108,no effect
B2,binding of Xatr and Xatrip to glutathione beads,Xatr-Xatrip [4],retains significant ability to bind Xatr-Xatrip
same,activation of Xatr kinase activity toward PHAS-I,Xatr-Xatrip [2],totally lost its capacity
same,phosphorylation of Xchk1 in egg extracts,Xchk1 [5],"none of the ΔRQLQ, ΔWDDP, or W1138R mutants of the 972-1279 fragment could induce ectopic activation"
same,activity of kinase-deficient FLAG-ATR,human ATR [6],neither the intact nor W1138R mutant form of GST-XtopBP1 (972-1279) had any effect
same,kinase activity of wild-type FLAG-ATR,human ATR [7],did not induce any activation

# From patent US8080531B2, “Methods for modulating checkpoint activation through TopBP1” (California Institute of Technology, priority 2006, dated 2011)
